Data taken from patent US20230322953A1 (HARBOUR BIOMED SHANGHAI, published 2023).
One block for each binder: values may come before it.

Assays:
[1] = molecular target: T1, cynomolgus monkey 4-1BB (cynomolgus monkey); test: flow cytometry (FACS) on CHO-K1/cyno 4-1BB cells, Experiment 2
T1 construct: whole, on cells; also called cyno 4-1BB

[2] = molecular target: T1, cynomolgus monkey 4-1BB; test: flow cytometry (FACS) on CHO-K1/cyno 4-1BB cells, Experiment 1
[3] = molecular target: T2, human 4-1BB (human, UniProt Q07011 24-255); test: flow cytometry, CHO-K1/hu 4-1BB cells
T2 construct: whole, on cells; also called CD137; TNFRSF9

[4] = molecular target: T3, human PD-L1 (programmed death ligand 1) (human, UniProt Q9NZQ7 19-290); test: flow cytometry (FACS) on CHO-K1/hPDL1 cells, Experiment 2
T3 construct: whole, on cells; also called hPDL1; CD274

[5] = molecular target: T4, human PD-L1 on cells (CHO-K1/hPDL1; MDA-MB-231) (human, UniProt Q9NZQ7 19-290); test: competition FACS: biotinylated PD-1 to CHO-K1/hPDL1 cells (Experiment 1)
T4 construct: whole, on cells

[6] = molecular target: T5, human PD-L1-His protein (ACRO Biosystems, #PD1-H5229) (human, UniProt Q9NZQ7 19-238); test: ELISA, coated hPD-L1-His
T5 construct: extracellular domain; bought; also called hPDL1-His; human PD-L1 extracellular domain recombinant protein

[7] = molecular target: T4, human PD-L1 on cells (CHO-K1/hPDL1; …); test: FACS, CHO-K1/hPDL1 cells (Experiment 1)
[8] = molecular target: T6, biotinylated human CTLA4-Fc protein (ACRO Biosystems, #CT4-H82F3) (human, UniProt P16410 36-161, biotinylated); test: competition ELISA: biotinylated hCTLA4-Fc to coated B7-1-Fc
T6 construct: bought; also called human CTLA4 protein

[9] = molecular target: T7, human CTLA4-His protein (ACRO Biosystems, #CT4-H5229) (human, UniProt P16410 36-161); test: ELISA, coated hCTLA4-His
T7 construct: extracellular domain; bought; also called hCTLA4-His; human CTLA4 extracellular domain recombinant protein

[10] = molecular target: T8, human CTLA4 on cells (CHO-K1/hCTLA4; HEK293/hCTLA4; 293F-hCTLA4) (human, UniProt P16410 36-223); test: competition FACS: biotinylated B7-1-Fc to CHO-K1/hCTLA4 cells (Test 1)
T8 construct: whole, on cells

[11] = molecular target: T8, human CTLA4 on cells (CHO-K1/hCTLA4; …); test: FACS, CHO-K1/hCTLA4 cells (Test 1)
[12] = molecular target: T7, human CTLA4-His protein (ACRO …); test: ELISA, coated hCTLA4-His; remark: listed apart in the source
[13] = molecular target: T3, human PD-L1 (programmed death ligand 1); test: flow cytometry (FACS) on CHO-K1/hPDL1 cells, Experiment 3
[14] = molecular target: T3, human PD-L1 (programmed death ligand 1); test: flow cytometry (FACS) on CHO-K1/hPDL1 cells, Experiment 1
[15] = molecular target: T6, biotinylated human CTLA4-Fc protein …; test: competition ELISA: biotinylated hCTLA4-Fc to coated B7-1-Fc; remark: listed apart in the source
[16] = molecular target: T9, human CTLA4 on CHO-K1/hCTLA4 cells (human, UniProt P16410 36-223); test: flow cytometry competition: biotinylated human B7-1-Fc on CHO-K1/hCTLA4 cells, Experiment 1
T9 construct: whole, on cells; CHO-K1 cell line highly expressing human CTLA4; also called human CTLA4 cell

[17] = molecular target: T9, human CTLA4 on CHO-K1/hCTLA4 cells; test: flow cytometry competition: biotinylated human B7-1-Fc on CHO-K1/hCTLA4 cells, Experiment 2
[18] = molecular target: T9, human CTLA4 on CHO-K1/hCTLA4 cells; test: flow cytometry on CHO-K1/hCTLA4 cells, Experiment 2
[19] = molecular target: T10, biotinylated human CTLA4-Fc protein (ACRO Biosystems, #CT4-H82F3) (human, UniProt P16410 36-161, biotinylated); test: competition ELISA: coated human B7-1-Fc, biotinylated human CTLA4-Fc, Experiment 2
T10 construct: Bought protein; also called human CTLA4 protein

[20] = molecular target: T9, human CTLA4 on CHO-K1/hCTLA4 cells; test: flow cytometry on CHO-K1/hCTLA4 cells, Experiment 3
[21] = molecular target: T10, biotinylated human CTLA4-Fc protein …; test: competition ELISA: coated human B7-1-Fc, biotinylated human CTLA4-Fc, Experiment 1
[22] = molecular target: T9, human CTLA4 on CHO-K1/hCTLA4 cells; test: flow cytometry on CHO-K1/hCTLA4 cells, Experiment 1
[23] = molecular target: T8, human CTLA4 on cells (CHO-K1/hCTLA4; …); test: competition FACS: biotinylated B7-1-Fc to CHO-K1/hCTLA4 cells

B1: Anti-4-1BB monoclonal antibody utomilumab analog, hIgG2 (antibody, V domains shown)
VH: EVQLVQSGAEVKKPGESLRISCKGSGYSFSTYWISWVRQMPGKGLEWMGKIYPGDSYTNYSPSFQGQVTISADKSISTAYLQWSSLKASDTAMYYCARGYGIFDYWGQGTLVTVSS
VL: SYELTQPPSVSVSPGQTASITCSGDNIGDQYAHWYQQKPGQSPVLVIYQDKNRPSGIPERFSGSNSGNTATLTISGTQAMDEADYYCATYTGFGSLAVFGGGTKLTVLG
notes: tied to PR000483 by the list of control molecules; also called PR000483
EC50 [1]: 0.337 nM
EC50 [2]: 0.347 nM
Maximum MFI [2]: 5390 MFI

B3: PR004270, PD-L1×4-1BB bispecific antibody molecule of Fab-HCAb symmetric structure (bispecific antibody, human IgG1)
chain 1: EVQLVESGGGLVQPGGSLRLSCAASGFTFSSYWMSWVRQAPGKGLEWVANIKQEGSEKYYVDSVKGRFTISRDNAKNSLYLQMNSLRAEDTAVYYCARDRAVAGAFDIWGQGTMVTVSSASTKGPSVFPLAPSSKSTSGGTAALGCLVKDYFPEPVTVSWNSGALTSGVHTFPAVLQSSGLYSLSSVVTVPSSSLGTQTYICNVNHKPSNTKVDKKVEPKSC
chain 2: not shown
notes: Structure 1 Fab(CL)-VH-Fc; Fab of PR000265, VH of PR001760; linker H1_15, human IgG1 hinge (C220S); human IgG1 (L234A, L235A)
EC50 [1]: 1.55 nM
EC50 [4]: 0.963 nM

B5: Anti-PD-L1 91G3H5H3 (D54E), hIgG1 (N297A) (antibody)
light: DIQMTQSPSTLSASVGDRVTVTCRASQSIYIWLAWYQQKPGKAPNLLIYKASSLETGVPSRFSGSGSGTEFTLTISSLQPDDFATYYCQQYYGSSRTFGQGTKVEIKRTVAAPSVFIFPPSDEQLKSGTASVVCLLNNFYPREAKVQWKVDNALQSGNSQESVTEQDSKDSTYSLSSTLTLSKADYEKHKVYACEVTHQGLSSPVTKSFNRGEC
heavy: not shown
notes: hIgG1 (N297A); also called PR000265
EC50 [13]: 1.56 nM
Maximum MFI [13]: 47000 MFI
EC50 [4]: 0.356 nM
EC50 [14]: 0.781 nM
Maximum MFI [14]: 2000 MFI

B6: PR000302 (bispecific antibody, human IgG1, kappa)
chain: DIQMTQSPSTLSASVGDRVTVTCRASQSIYIWLAWYQQKPGKAPNLLIYKASSLETGVPSRFSGSGSGTEFTLTISSLQPDDFATYYCQQYYGSSRTFGQGTKVEIKRTVAAPSVFIFPPSDEQLKSGTASVVCLLNNFYPREAKVQWKVDNALQSGNSQESVTEQDSKDSTYSLSSTLTLSKADYEKHKVYACEVTHQGLSSPVTKSFNRGECEPKSSDKTHTPPPPPEVQLVESGGGLIQPGGSLRLSCAVSGFTVSKNYMSWVRQAPGKGLEWVSVVYSGGSKTYADSVKGRFTISRDNSKNTLYLQMNSLRAEDTAVYYCARAVPHSPSSFDIWGQGTMVTVSS
heavy: not shown
IC50 [5]: 0.64 nM
Maximum inhibition rate (%) [5]: 96.7%
fold weaker IC50 than PR000184 [15]: 4 fold
EC50 [6]: 0.152 nM
Maximum OD450 [6]: 3.54 OD450
EC50 [7]: 0.737 nM
Maximum MFI [7]: 18600 MFI
IC50 [8]: 11.6 nM
Maximum inhibition rate (%) [8]: 98.9%
EC50 [9]: 10.6 nM
Maximum OD450 [9]: 3.55 OD450
IC50 [10]: 71.2 nM
Maximum inhibition rate (%) [10]: 49%
EC50 [11]: 26.1 nM
Maximum MFI [11]: 1570 MFI

B7: Anti-CTLA4 heavy-chain antibody CL5v3, hIgG1 (antibody, V domains shown)
VH: EVQLVESGGGLIQPGGSLRLSCAVSGFTVSKNYMSWVRQAPGKGLEWVSVVYSGGSKTYADSVKGRFTISRDNSKNTLYLQMNSLRAEDTAVYYCARAVPHSPSSFDIWGQGTMVTVSS
notes: Heavy-chain-only antibody (HCAb), no light chain; parent of the CTLA4 end of the HER2xCTLA4 bispecifics; also called PR000184
IC50 [16]: 1.69 nM
Maximum inhibition rate [16]: 99.6%
IC50 [17]: 0.239 nM
EC50 [18]: 1.79 nM
Maximum MFI [18]: 1080 MFI
IC50 [19]: 1.69 nM
EC50 [20]: 3.05 nM
IC50 [21]: 2.46 nM
EC50 [22]: 1.59 nM
Maximum MFI [22]: 214 MFI

Continued, values first:

EC50 [3]: 3.76 nM
Maximum MFI [3]: 83600
B2: PR001760, anti-4-1BB heavy-chain antibody 1016P0011G10, hIgG1 (antibody, V domains shown)
VH: EVQLVESGGGVVQPGGSLRLSCAASGFTFSNYAMTWVRQAPEKGLEWVSSISGSGVSTYYADSVKGRFTISRDNSKNTLYLQMTRLTAEDTAVYFCAKEGSSETDDHYYNVDVWGQGTTVTVSS
notes: Heavy-chain-only antibody (HCAb), no light chain

IC50 [5]: 0.695 nM
Maximum inhibition rate (%) [5]: 95.9%
EC50 [6]: 0.241 nM
Maximum OD450 [6]: 3.52 OD450
EC50 [7]: 0.848 nM
Maximum MFI [7]: 18000 MFI
IC50 [8]: 4.12 nM
Maximum inhibition rate (%) [8]: 97.3%
EC50 [9]: 1.57 nM
Maximum OD450 [9]: 2.72 OD450
IC50 [10]: 9.71 nM
Maximum inhibition rate (%) [10]: 83.3%
EC50 [11]: 4.36 nM
Maximum MFI [11]: 2040 MFI
fold poorer EC50 than PR000184 [12]: 2.6 fold
B4: PR000303 (bispecific antibody, human IgG1, kappa)
light: B5 light
chain: not shown

fold poorer IC50 than the parent monoclonal antibody [23]: ~4 fold
B8: PR002672 (bispecific antibody)
chain 1: not shown
chain 2: not shown
chain 3: EVQLVESGGGLIQPGGSLRLSCAVSGFTVSKNYMSWVRQAPGKGLEWVSVVYSGGSKTYADSVKGRFTISRDNSKNTLYLQMNSLRAEDTAVYYCARAVPHSPSSFDIWGQGTMVTVSSGGGGSEVQLVESGGGLIQPGGSLRLSCAVSGFTVSKNYMSWVRQAPGKGLEWVSVVYSGGSKTYADSVKGRFTISRDNSKNTLYLQMNSLRAEDTAVYYCARAVPHSPSSFDIWGQGTMVTVSSEPKSSDKTHTCPPCPAPELLGGPDVFLFPPKPKDTLMISRTPEVTCVVVDVSHEDPEVKFNWYVDGVEVHNAKTKPREEQYNSTYRVVSVLTVLHQDWLNGKEYKCKVSNKALPAPEEKTISKAKGQPREPQVCTLPPSREEMTKNQVSLSCAVKGFYPSDIAVEWESNGQPENNYKTTPPVLDSDGSFFLVSKLTVDKSRWQQGNVFSCSVMHEALHNHYTQKSLSLSPGK
notes: HER2×CTLA4, structure 18 Fab(cross Fd/LC)-Fc-VH-VH
